Source: article PMC7498065 (2020)

Molecular target: Complement component C5 (human, UniProt P01031)
Assay: SPR

Chain of Complement component C5 (P01031 19-673, chain 1 of 2): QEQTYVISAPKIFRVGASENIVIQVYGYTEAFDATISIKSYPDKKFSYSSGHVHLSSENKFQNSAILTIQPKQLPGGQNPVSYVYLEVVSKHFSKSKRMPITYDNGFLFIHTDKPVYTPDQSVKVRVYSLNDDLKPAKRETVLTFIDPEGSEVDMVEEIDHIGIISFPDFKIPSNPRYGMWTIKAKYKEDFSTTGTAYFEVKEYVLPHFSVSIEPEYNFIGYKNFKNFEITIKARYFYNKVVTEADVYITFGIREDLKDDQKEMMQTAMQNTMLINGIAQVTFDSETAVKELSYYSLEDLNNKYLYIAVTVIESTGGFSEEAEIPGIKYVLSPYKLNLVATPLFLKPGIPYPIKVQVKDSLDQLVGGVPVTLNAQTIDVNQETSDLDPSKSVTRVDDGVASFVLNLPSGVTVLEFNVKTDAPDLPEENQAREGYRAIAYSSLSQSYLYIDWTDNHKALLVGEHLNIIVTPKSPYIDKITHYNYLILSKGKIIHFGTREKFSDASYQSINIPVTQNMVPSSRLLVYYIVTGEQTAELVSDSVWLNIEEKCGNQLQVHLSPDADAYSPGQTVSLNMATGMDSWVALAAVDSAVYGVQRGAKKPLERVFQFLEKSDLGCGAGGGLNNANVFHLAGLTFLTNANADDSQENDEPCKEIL
Chain of Complement component C5 (P01031 678-1676, chain 2 of 2): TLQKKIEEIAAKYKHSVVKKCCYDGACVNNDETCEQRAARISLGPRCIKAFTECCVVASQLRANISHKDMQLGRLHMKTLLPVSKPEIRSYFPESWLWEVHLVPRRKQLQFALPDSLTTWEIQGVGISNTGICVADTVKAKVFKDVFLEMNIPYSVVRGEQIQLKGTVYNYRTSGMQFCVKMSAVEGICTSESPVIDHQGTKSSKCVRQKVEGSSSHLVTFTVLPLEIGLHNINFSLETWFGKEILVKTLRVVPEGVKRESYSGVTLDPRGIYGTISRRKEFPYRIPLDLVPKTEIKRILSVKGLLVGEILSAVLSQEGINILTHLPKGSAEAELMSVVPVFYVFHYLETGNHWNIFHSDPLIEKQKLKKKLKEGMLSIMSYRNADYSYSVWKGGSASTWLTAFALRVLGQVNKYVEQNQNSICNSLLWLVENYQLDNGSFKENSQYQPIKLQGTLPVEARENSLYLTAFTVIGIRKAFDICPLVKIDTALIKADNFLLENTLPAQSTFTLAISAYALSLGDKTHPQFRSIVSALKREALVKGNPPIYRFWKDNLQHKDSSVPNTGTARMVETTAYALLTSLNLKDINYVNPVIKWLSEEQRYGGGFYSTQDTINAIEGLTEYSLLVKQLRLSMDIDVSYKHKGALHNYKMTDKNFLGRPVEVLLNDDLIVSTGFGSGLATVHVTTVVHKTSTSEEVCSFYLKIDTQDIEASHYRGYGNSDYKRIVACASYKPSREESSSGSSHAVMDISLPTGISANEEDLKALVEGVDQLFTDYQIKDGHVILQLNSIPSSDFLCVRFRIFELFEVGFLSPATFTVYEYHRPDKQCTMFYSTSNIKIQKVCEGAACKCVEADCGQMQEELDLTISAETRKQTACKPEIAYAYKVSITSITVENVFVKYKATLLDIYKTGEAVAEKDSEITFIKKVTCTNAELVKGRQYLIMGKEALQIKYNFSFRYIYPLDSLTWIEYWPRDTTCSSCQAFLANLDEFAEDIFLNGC

B1: PGT121-K149 fusion protein (Fab)
chain 1: QMQLQESGPGLVKPSETLSLTCSVSGASISDSYWSWIRRSPGKGLEWIGYVHKSGDTNYSPSLKSRVNLSLDTSKNQVSLSLVAATAADSGKYYCARTLHGRRIYGSENLYFQGSCPDGFSYRSWDDFCCPMVGRCLAPRNGSENLYFQGSEWFTYFYMDVWGNGTQVTVSS
chain 2: QSVLTQPPDISVAPGETARISCGEKSLGSRAVQWYQHRAGQAPSLIIYNNQDRPSGIPERFSGSPDSPFGTTATLTITSVEAGDEADYYCHIWDSRVPTKWVFGGGTTLTVL
- Kd: 517 nM

B2: PGT121-K136 fusion protein (Fab)
chain 1: QMQLQESGPGLVKPSETLSLTCSVSGASISDSYWSWIRRSPGKGLEWIGYVHKSGDTNYSPSLKSRVNLSLDTSKNQVSLSLVAATAADSGKYYCARTLHGRRIYGSENLYFQGTCPDNYREVDGCDPYDCCLTTWCTNSYCTRYIENLYFQGSEWFTYFYMDVWGNGTQVTVSS
chain 2: B1 chain 2
- Kd: < 2.2 nM
